In doi:10.1101/2020.12.04.411645 one finds Kd data, which are given here for one substance.

The assay concerns the target MBP-tagged full-length CYRI-A (mouse) (UniProt Q8BHZ0). In words: SPR. On the technique in general: SPR reads the build-up and loss of mass on a sensor chip optically.

MBP-tagged full-length CYRI-A (mouse), sequence (Q8BHZ0 whole entry): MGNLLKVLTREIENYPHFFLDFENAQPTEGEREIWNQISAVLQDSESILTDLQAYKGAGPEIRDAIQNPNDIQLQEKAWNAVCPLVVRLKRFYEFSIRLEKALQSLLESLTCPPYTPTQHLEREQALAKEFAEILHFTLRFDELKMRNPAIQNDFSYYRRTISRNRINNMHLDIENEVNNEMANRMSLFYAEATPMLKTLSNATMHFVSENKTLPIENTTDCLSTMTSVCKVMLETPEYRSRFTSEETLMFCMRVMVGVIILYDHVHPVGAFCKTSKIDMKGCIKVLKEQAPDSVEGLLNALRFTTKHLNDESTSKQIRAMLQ

One may read the Kd as the free concentration of one partner at which half of the binding sites on the other are occupied at equilibrium, for simple one-to-one binding. As for “untagged full-length RAC1 Q61L (from UniProt P63000 1-192) (enzyme; other documents disagree on this pair)”, the Kd was determined as 2470 nM.
